Results: patent publication US7041871

Target: T1, recombinant soluble human CD4 (human, UniProt P01730 26-396, limits assumed)
T1 construct: Soluble recombinant CD4 used for ELISA and SPR/BIAcore; also called rCD4; sCD4
Assay: BIAcore; rCD4 coupled to chip, mAb flowed (avidity)
Protocol: The rate and equilibrium constants presented in Table 19 were determined with a BIAcore, using antigen (rCD4) coupled to the sensor chip and flowing mAb over. These constants were derived from at least three independent experiments using purified mAbs.

kon: 11000 M⁻¹ s⁻¹
B1: 6G5.1 (antibody, human IgG1, V domains shown)
VH: QVQLQQWGAGLLKPSETLSLTCAVYGGSFSGYYWSWIRQPPGKGLEWIGEINHSGSTNYNPSLKSRVTISVDTSKNQFSLKLSSVTAADTAVYYCARVINWFDPWGQGTLVTVSS
VL: DIQMTQSPSSVSASVGDRVTITCRASQDISSWLAWYQHKPGKAPKLLIYAASSLQSGVPSRFSGSGSGTDFTLTISSLQPEDFATYYCQQANSFPYTFGQGTKLEIK
notes: Human IgG1 kappa from a hybridoma of an HC2/KCo5 mouse; VH4-34/JH5, VkL19/Jk2; also called GGS
